For the assay, the target named is 真实SARS-CoV-2(活病毒). Nature of the assay: cell-based or functional assay.

B1: 抗体37G2 (antibody, V domains shown)
VH: QVQLVQSGAEVKKPGSSVKVSCKASGGTFSSYAITWVRQAPGQGLEWMGGIIPIFGTANFAQKFQGRVTITADESTSTAYMELSSLRSEDTAVYYCAHLGGFADPFDYWGQGTLVTVSS
VL: EIVLTQSPATLSLSPGERATLSCRASQSVSNYLAWYQQKAGQAPRVLIYDAFNRATGIPARFSGSGSGTDFTLTISSLEPEDFAVYYCQQRSNWPPRITFGQGTRLEIK
In the case of B1, the “EC50 (活病毒在Vero-E6细胞中的活体外中和分析)” value came to 1.37 µg/mL.

B2: 抗体31C2 (antibody, V domains shown)
VH: QVQLVQSGAEVKKPGSSVKVSCKASGGTFSSYAISWVRQAPGQGLEWMGGIIPIFGTTNYAQKFQGRVTITADESTSTAYMELNSLRSEDTAVYYCAGRSAYGDKGYYFDYWGQGTLVTVSS
VL: EIVLTQSPATLSLSPGERATLSCRASQSVSNFLAWYQQKPGQAPRLLIYDASNRATGIPARFSGSGSGTDFTLTISSLQPEDFAVYYCQQRSNWPPQETFGQGTKVEIK
On to B2, for which the “EC50 (活病毒在Vero-E6细胞中的活体外中和分析)” value is 0.57 µg/mL.

B3: 抗体15A7 (antibody, V domains shown)
VH: QVQLVQSGAEVKKPGASVKVSCKASGYTFTSYDINWVRQASGQGLEWMGWMNPNSANPGYAQKFQGRVTMTRNTSISTAFMELSSLRSDDTAVYYCARARVTIHYDILTGYYSNAFDIWGQGTMVAVSS
VL: DIQMTQSPSSLSASVGDRVTITCRASQTISSYLNWYQQKPGKAPKLLIYAASSLQSGVPSRFSGSGSGADFTLTISSLQPEDFATYYCQQSYTTFMYTFGQGTMLEIK
As to B3, the “EC50 (活病毒在Vero-E6细胞中的活体外中和分析)” value turned out to be 0.61 µg/mL.

The record behind these values is patent publication CN112980885A (HENGYI BIOMEDICAL TECH SHANGHAI CO LTD, dated 2021).
